According to patent US20240148892A1:

Molecular target: human full-length B7H3 expressed on MCF-7 cells (human) (UniProt Q5ZPR3)
Experiment: cell-based or functional assay

Chain of human full-length B7H3 expressed on MCF-7 cells (human) (Q5ZPR3 29-534 limits assumed): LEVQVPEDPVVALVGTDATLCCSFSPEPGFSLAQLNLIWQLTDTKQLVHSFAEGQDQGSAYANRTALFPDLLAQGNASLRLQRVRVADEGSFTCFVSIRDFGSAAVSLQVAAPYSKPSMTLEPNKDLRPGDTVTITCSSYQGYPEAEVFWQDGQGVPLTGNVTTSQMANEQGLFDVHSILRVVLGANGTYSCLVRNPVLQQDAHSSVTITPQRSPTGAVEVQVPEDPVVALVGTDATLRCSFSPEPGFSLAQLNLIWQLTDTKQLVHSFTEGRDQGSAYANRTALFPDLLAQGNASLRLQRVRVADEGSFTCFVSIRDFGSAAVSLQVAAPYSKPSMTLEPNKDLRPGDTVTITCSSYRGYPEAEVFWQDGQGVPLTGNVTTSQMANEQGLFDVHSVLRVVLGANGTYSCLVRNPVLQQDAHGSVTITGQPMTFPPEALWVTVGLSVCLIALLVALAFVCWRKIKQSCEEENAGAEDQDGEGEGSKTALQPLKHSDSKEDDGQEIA

IC50 of inhibition of proliferation, A375 melanoma cells (CellTiter-Glo): 315 nM
IC50 of inhibition of proliferation, A549 lung cancer cells (CellTiter-Glo): 378 nM
IC50 of inhibition of proliferation, Calu-6 lung cancer cells (CellTiter-Glo): 428 nM
IC50 of inhibition of proliferation, HT-29 colorectal cancer cells (CellTiter-Glo): 1140 nM
IC50 of inhibition of proliferation, MCF-7 breast cancer cells (CellTiter-Glo): 435 nM
IC50 of inhibition of proliferation, NCI-H358 lung cancer cells (CellTiter-Glo): 123 nM
IC50 of inhibition of proliferation, NCI-H1568 lung cancer cells (CellTiter-Glo): 32.8 nM
IC50 of inhibition of proliferation, PC-3 prostate cancer cells (CellTiter-Glo): 959 nM
IC50 of inhibition of proliferation, U87 MG brain cancer cells (CellTiter-Glo): 354 nM
B1: reference ADC-1 (Daiichi Sankyo, DS7300) (protein, INN chains, looked up)
VH: QVQLVQSGAEVKKPGSSVKVSCKASGYTFTNYVMHWVRQAPGQGLEWMGYINPYNDDVKYNEKFKGRVTITADESTSTAYMELSSLRSEDTAVYYCARWGYYGSPLYYFDYWGQGTLVTVSS
VL: EIVLTQSPATLSLSPGERATLSCRASSRLIYMHWYQQKPGQAPRPLIYATSNLASGIPARFSGSGSGTDFTLTISSLEPEDFAVYYCQQWNSNPPTFGQGTKVEIK
modifications: deruxtecan payload
